Source: a protein production outcome set (Wang et al. 2014)

Experiment: label from the status in PepcDB records

Sequence | protein production
MVREGFDVTLVEARERGGLETSYANGGQLSYRYVAPLADSGVPAQALGWLLRNDAPLRLRPRLDPAQWRWLLGFLAACRGSLNRRNAAHLLRLALLSQRTLQDWREEDGLDGFDWRRNGKLVAFRQPASFARARQGLADPSAQFVLTAAECLALEPALSAAPFVGGIHTPDEEVADCHAFCVQLAERLQASGHCRQLHGRRVTKIVEGGAAVRGVEVGGDLIEADHVVLAAGYRSAELMLPGLRLPLYPLKGYSLTLPVGAQHRAPDTSITDYDRKIVYARIGERLRIAAMVDIVGFDPGLEPARLALLRQQARDTFPQGGDFDAAVEWAGMRPATPTGVPLVGNGGYRNLWLNLGHGALGFTLACGSGRLLAEQIGRRPPSIDTTGLLPRGALAG | failed
MVRKLRHFGDRLREEPDKFRFVLSRALWVTGLCRLITFSFPAGYRMRFYPSAISAGLWRDRNFRSEDADFVAGYLRPGETFVDVGANVGQLSLVAARRVTSSGRTIAIEAHPRTCNFLRGNVRLNGLPIEIHNVAVGSECGELFFTNFRSDDMNFAYAASPRNGSALRVPVATLDSIIGERPVDLLKVDVEGFECDLLRGAAQTLHNCRCLYIEDSEPNLRRAGSSRVELYDRLSEGGFELFHVRGKRLERVSVQAAGPLTENLIAVRGSDLPDALARTGFCLA | failed
MVRLDLPWDLVDEILSRLPATSLGRLRFTCKRWNALFKDPEFITKQFHKAAKQDLVLMLSNFGVYSMSTNLKEIPNNIEIAQVFHCNGLLLCSTEEGNKTKLVVVNPCTGQTRWIEPRTDYNYNHDIALGYGNNSTKKSYDSYKILRITYGCKLVEIFELKSNSWRVLSKVHPNVEKHYYGGVSFKGNTYWLSYTKFNILSFDFTTETFRSVPLPFLYQDGFVTLALSVVREEQLLLLRSRFDMGQVGIWMCNKIDTETVLSWSKSFTLEFDSLRDLPVMSILRIFIEEDKKVIVVDCDDRWKENMIYIVGKNGFKKLSYEKDRSNLWRLPFFFSYVPSLVGLYPPM | failed
MVRLIFSDIDGTLINSNFKVTPKTRQGIKQIVAQGATFVPISARMPEAITPIMEQIGIDSYIISYNGALIQDMQQKTIASHTMDGQVALQVCSYVSKHYSKIAWNVYRYHEWYSCDKENEWVQKEEEIVGLQSKEMSLMELEKQDRIHKLLLMGEPSLMGELENTLKAQYPHLSIAQSAPYFIEIMAPGIEKGKSAKTLADYLDISLADSIAFGDNYNDLNLLEIVGKGFVMGNAPKDLQERIGNVTQDNDNDGIYYALVEYMEN | failed
MVRNMLIESVLFLAAGLFMLSYGSDWFVLGASRVAKQFNISSFVIGATIVAFGTSLPEIVTSAYAASTGSVELAVGNALGSCIANIGLVLGLSLIISTVFIKNRSVLKNGYLYIIYTIIFTAIGYNGFSFFDGIFLLFLLLVYVVYTIKSGEMDDEEHEKSITFKKAIIYLLIGLLFVILGSSFFVDGAKGLASAFGVSEKIIGFTIVAFGTSLPELSVSFAAARQKLGGIVIGNVIGSNIANMFGALAIASIIHEIPAVKFELSVNILMVLLLIAMMSKEKIKAVLNLNSTKEYLSKITKADGLILILIYLLFVLGLTGIF | failed
MVRNSMKAEYDIDHLPHQTFYGDYSKTLVPMNKNSQIITKIKPKIRIIHIFAPEIINTDVKNFRTLVQSLTGKPEITKTGSKKKITNTNFPAPPGLPQDSGQEHTAELDNRIIGSHVVKEEWGSSSNTNTYFDFDGLIDLDEDDNIFSSRWFDLQQQ | failed
MVRRTRAEMEETRATLLATARKVFSERGYADTSMDDLTAQASLTRGALYHHFGDKKGLLAAVVEQIDAEMDERLQAISDTAEDDWEGFRCRCRAYLEMALEPEIQRIVLRDARAVLGGASPDSQRHCVESMQRLIDNLIRQGVVAEADPQALASLIYGSLAEAAFWIAEGEDGNARLAQGVAALELLLRGLLVKPR | not failed
MVRVCACLIVKNEAAHLARCLGSVQPWVDDIVVVDTGSTDETPAIARQFTERLFTFPWQDDFAAARNYSLEQATGDWILVIDADEVLVTLQEPPVPLGQQLAGSPFTAYQLLRREIGTGEQFSDFAIVRLFRNLPTLRYQGRFHEQLVSTAAAPLTIGTLETLRIDHYGYQPAQIQAKMRDRNIPILERIRASEGLPLHLLFALADMYQAVNNPVEAENCYQELFDRLLPHLLSGQLPENAPGALPEILNQLGRRLLATGDHDTLQLLCQQGLAWFPTYPPLNDLAGRWLMTLGFPLGATAYFEYCLELGRTNGYSKQMIFPLGYVREIAAEQLGRAYEALGDRERAAAAFAQAAALRQGKAHPQLEHHHHHH | not failed
MVRVVRHSRGTCNRGLYEVRELARNRTLQQWGVEDSAELYGIRNWGAGYFDVAQNGDVVVYPFGHNRGPAVSIPEIIGGMRERGYDMPVLLRIENILDSQITSLHTSFRNAIGSLGYKGEYRGIFPIKVNQQQQVVEKIAQFGSHYHHGLEVGSKAELIAAVSQLRDREACLVCNGYKDEEFIDLGLHAVRLGFMCIFVLEMPGELDLILERGEALGVKPIIGVRAKLSVKAGGHWTDSGGERSTFGLTTSQIVDVVDRLKEKGMLDCFKLLHYHLGSQVPNIRDIRAAVMEACRIYAGLVQEGAAMGFLDLGGGLAVDYDGSHTNFVSSRNYTLDEYCADIVEAVMTTLDEQNIPHPHIVTESGRATVAYYSMLLFNILDVSRVEIGNLPDALPEDTPEPVRNMREVLAGMTLRNLQECYNDALYYRDAVRQLFLTGQVTLRQRTLSERLFWAIMKRIAQEKQKLKHVPKDLAEIDVALADIYYGNFSVFQSLPDSWAIDQLFPVMPVHRLQELPSRQGILSDITCDSDGRIDHFIDPQGMKGTLDLHPLRDGEEYYLGVFLVGAYQETLGDLHNLLGDTNVVSVRVHEDGTYEFVREIRGDSVADILSYVEYDPRRIYEDIRELAERAVREGRITASDRFRVMQAYEDGLRGYTYFERLEHHHHHH | failed
MVSFRSRSNPAVVILGLGRFGMALGEELVHSGVEVMGIDTNPAVVDKASAILTYAAVADTTSEEALRQLAVNEASRVVIGIGSDMGASLLTASAVVEFNIPSIWAKALNNSHAKILKQIGVHHIIRPEQDTGRRIAHLMNGRVQEYAEFDRDYAIVKIAPPVSALGKKVCDFDRVQIIAVRPAGGMFRQSKPEMVLRSGDLILAAGNPDELERFGTLD | failed
MVSLVMSGLTFWAVNTIQQDAQVNDTRFGRDLGLLLAANVAPLVADHNLTEVAQFSQRFYSSTSSVRYMLYADETGKIFFGIPFWEPEVENSLSIERRIQLPEEYPGDGEKPMVRQHMSPDGIVTDVFIPLIVDKKYLGVLAIGINPNQTAVISTNFTRDVTIAVFITIWVMVILAGVVNALTITKPIKELLVGVKQIAAGNFKQRIDLPLGGELGELILNFNEMAERLERYEEQNIEELTAEKAKLETLVSTIADGAVLIDNNMQVILVNPTARHIFGWEGADDVVGSNVLHHLPPAVQMEITRPLYEMAAGECDSAEFRLTLNQPSNRTIRILLTTVLNLQRESIKGIAITVQDITREVELNEAKSQFISNVSHELRTPLFNIKSFIETLHDYGEDLSLEERQEFLQTVNHETDRLTRLVNDVLDLSKLESGRSYSFDGVDLAQAIEQTLRTYQLNARDKGIELIQDVAPGLPLVLGNYDLLLQVLANLVGNALKFTSSGGKIAIRTYVLNTKSNSPNQPAQVRIEVSDTGIGIAQEDQQAIFDRFFRVENRVHTLEGTGLGLSIVRNIVERHRSRVNLVSEVGVGTTFWFDLILFEDEAPKKMVESGEEKAAMPTS | failed
MVSRIPTGNRGQGNGIEQSASSHATEATPWLGVNLPYGHWLPSSARSVVSRASSLLGGLANFRWGGRPASARPAPNIRSAAIAPAQQTLPPELWQQIATLAGARPRRAMREVSLELRNASRAVVTHLTISDPAMFRQLSLYPALKSVRFKGELTLEALKALPPELEHLEIGRCTGSAISAEGLAHLASMPLKSLNLNGIEIGVEGARTLAASKSLVSLSLIGCGIGDRAAQALVASRSIQCLDLSVNRIGRDGAQALAGAPLVSLNLHNNEIGNEGARVLATSRTLTSLDVSNNGVGNAGAEAFAGNTVLKQLSLAGGMISGDGAQALADNKSLTDLDLSNNRLGDAGAQALADSESFVSLKLGGNEIGADGAEALARNVVLQSLNLSYNPIGFWGVNALGRAKLRKLDLCACAIDSDGASALARNTSLASLYLGSNRIGDDGARALAKNSTLTLLNLSGNNIHAVGAQALASNDSLITLDLSRNGIGDDGTAALACHPRLTSLNLSRNQIGSTGAQQLAKSATLAELDLSENRIGPEGAEALARSTVLTTLNVSYNAIGEAGARALAESVSLTSLDARRNGIGEDGAKVLEANTRITGTPQNPNFLAEDVPRPDVRWRD | failed
MVSTIIISFFIIIIAVVILVLVATRSKSPSSGGRKKVKGRAVLMKEASRRLAQNPHDIEGLFIMGDIYYQDQDWEKAYTAYSALLDRMKPLEMNKQLDVAIRYGICALKTNRLPEAKKGFLLAETINPKNLDVSYNLGYIYYLEKDYEKAVKFFKRTLILEPNSFLATKYLGYTLQHLHKYTEALPALKKALDFKPDDKEVLFAMGECFYETEATDRCLKILNHLRVDPVFGPQASLYTGMIRAKADQLERAIEDFQIGLKHTGIPMDISNELKYRLAQAYIKTQEIGQALHLLKEIQSISPGYKDAATLIMRYQELNKNKNLQIYLMSGQSEFVALCRKIVARFYPKAKVKIVDISVLAAYTDIVAEIDTSRFSDTVIFRFFRSQGTVGELLLRELHARLKEVKGGTGICMSAGTFTEEAVRFSEGRPLDLYDKTRLSNVLNSLK | failed
MVSVNLPWELVEEILCRVPPQSLVKFRTVCKQWNSLFDDNKFVNDHFVQSQPQLIFRTESKIYSVAVNFKGPRIEVHELPLAIPGLKSEMPIRLHDYVDCDGLLFCTSYFNGVLIWNPWLRQTRFFPSIHRYPVTYDIGYDNKKQYKMLDYYKCEGDSSIKSIIYEIGLYSKKVKDLESDSTWSIFQSNSVSLNGTLYWAGVDVNNGIFIRSFSFSTEKPRTFCSLPFMYDDDNVLALAVFRKDRLSLLNLCNKTSEIKIWLTKNNINDREVGLEEDVVWINLMTVLIPNFPKFSFYWYNRPDLTYFLDNDDAKRLVICCYDETDQAYIYIVKGDMFKKIKIDQYEVLSDYSRPHFHTYIPSLVRPSRVKEDNKN | failed
MVTIPIFLIIIGATMAVVVWSAKRTKSAADFYTAGGGITGTQNGWAIAGDYMSAASFLGISGMISLYGYDGFMYSVGWLVAYITVLLIVAEPCRNAGKYTLGDILSFRTEPKVVRAVCAISVVAVSTFYLTAQMVGAGKLMQLLLGIPYKFAIIGVGILMVGYVVFGGMTATTWVQIIKAGLLMTGAGLLSVLVGLKAGMNPFTFFNDIATNPNIIEHVQKAVLKDPVAVAGFDYGQRFLEPGLFLKNPLDQISLGMALVLGTAGMPHILMRFFTVPTAQAARKSVIVAMFIIGSFYILTTLLGFGAAIHVTPQGITAVDKGGNMAAMMLAQQLGGDISPFLGDLLLAFLCAVAFATILAVVSGLVLAASAAIAHDIYVNVIKDGHADQHEQVMAARITSLCVGAMGIIIGIAAEKQNVAHLVALAFAVASSGNLPVVVMSLFWRKFNTAGVVSGLVVGTVASIALVMVSPNMTYPKVVAADAQKVVTKLEEKQAGGAVLTEKEMKDLDKAKADYAKNKDGKSMLGLDKPLIKLKNPGIISIPLGFLAAIIGCLAFPSRRSEEMFDEIYVRQNTGIGMAKAIDH | failed
MVTSEGLASVDSWLYRQGFNVDSWLLSDTFSHDNDLLARALHTTVTAPHTLTPSSAFFDSSAVSHPSSTNTLSSTVSGASDPEIIGGGAKRKRNCLLTDGKAAKRRARASKKSQTTFITADPSNFRQMVQQVTGAKYIDDSSSFGIFDPIVKPEPLRFVNKLPCGPSDRSTAVPMLDTSAFLSNHHQENLAVGNAFSGNSSSVGLPSGKPSATADPGGSAVEFDNYPTFPTLESWKVM | failed
MVVAPYLAVAIGGSLGAMSRYLVTIMAQNAWGIKFPYGTLLVNTLGSFLAGFFLIVLVGRFSAEESFRLFLFTGFLGAFTTFSSFAAESLFMFEQGYWFKLMTNILVNNVGSLSMVFIGTLVAKYVLLGHQGSN | failed
